Measurements taken from US20230272051A1 (CENTIVAX, published 2023).

Legend:
[1] = biological target: T1, SARS-CoV-2 Receptor Binding Domain (RBD) protein (SARS-CoV-2, UniProt P0DTC2 319-541); test: SPR (Carterra LSA); scFv captured by anti-V5, RBD as analyte
T1 construct: also called Sars-Cov-2 (COV2)

[2] = biological target: T1, SARS-CoV-2 Receptor Binding Domain …; test: SPR (Carterra LSA)

Binder	Kd [1] [nM]	koff [1] [s⁻¹]	kon [1] [M⁻¹ s⁻¹]	Kd [2] [nM]
COVID19_P13_G12 (scFv, V domains shown) VH: QVQLVQSGAEVKKPGSSVKVSCKASGYTFINYEIHWVRQAPGQGLEWMGGITPIFGTANYAQKFQGRVTITADESTSTAYMELSSLRSEDTAVYYCARDTVMGGMDVWGQGTLVTVSS VL: SSYVLTQPPSVSVAPGKTARITCGGNNIGSKSVHWYQQKPGQAPVLVIYYDSDRPSGIPERFSGSNSGNTATLTISRVEAGDEADYYCQVWDSSSDYVFGGGTKLTVLA	6.48	0.00088	140000	< 50
COVID19_P01_B06 (scFv, V domains shown) VH: QVQLVQSGAEVKKPGSSVKVSCKASGYTFSAYYMHWVRQAPGQGLEWMGGITPLFGTPSYAQKFQGRVTITADESTSTAYMELSSLRSEDTAVYYCALETVMGGVGVWGQGTLVTVSS VL: SSYVLTQPPSVSVAPGKTARITCGGNNIGSKSVHWYQQKPGQAPVLVIYYDSDRPSGIPERFSGSNSGNTATLTISRVEAVDEADYYCQVWDSSSDYVFGGGTKLTVLA	28	0.0122	437000	< 50
COVID19_P01_C09 (scFv, V domains shown) VH: QVQLVQSGAEVKKPGSSVKVSCKASGYTFTSFDIHWVRQAPGQGLEWMGGIIPIFGTANYAQKFQGRVTITADESTSTAYMELSSLRSEDTAVYYCAYETVMGGMDVWGQGTLVTVSS VL: SSYVLTQPPSVSVAPGKTARITCGGNNIGSKSVHWYQQKPGQAPVLVIYYDSDRPSGIPERFSGSNSGNTATLTISRVEAGDEADYYCQVWDSSSYYVFGGGTKLTVLA	18.2	0.0097	532000	< 50
COVID19_P01_E06 (scFv, V domains shown) VH: QVQLVQSGAEVKKPGSSVKVSCKASGCTFTRFTMHWVRQAPGQGLEWMGGITPIFGITNYAQKFQGRVTITADESTSTAYMELSSLRSEDTAVYYCAHDTVMGGMEEWGQGTLVTVSS VL: SSYVLTQPPSVSVAPGKTARITCGGNNIGSKSVHWYQQKPGQAPVLVIYYDSDRPSGIPERFSGSNSGNTATLTISRVEAGDEADYYCQVWDSSNDYVFGGGTKLTVLA	48.7	0.0118	242000	
COVID19_P01_G05 (scFv, V domains shown) VH: QVQLVQSGAEVKKPGSSVKVSCKASGYTFTDFYIHWVRQAPGQGLEWMGGIIPIFGTANYAQKFQGRVTITADESTSTAYMELSSLRSEDTAVYYCALETVMGGMDVWGQGTLVTVSS VL: SSYVLTQPPSVSVAPGKTARITCGGNNIGSKSVHWYQQKPGQAPVLVIYYDSDRPSGIPERFSGSNSGNTATLTISRVEAGDEADYYCQVWDSSSHYVFGGGTKLTVLA	2.89	0.00123	427000	< 50
COVID19_P01_H04 (scFv, V domains shown) VH: QVQLVQSGAEVKKPGSSVKVSCKASGYPFSSYEINWVRQAPGQGLEWMGGITPIFGTANYAQKFQGRVTITADESTSTAYMELSSLRSEDTAVYYCADETVMGGMDVWGQGTLVTVSS VL: SSYVLTQPPSVSVAPGKTARITCGGNNIGSKSVHWYQQKPGQAPVLVIYYDSDRPSGIPERFSGSNSGNTATLTISRVEAGDEADYYCQVWDSSNDYVFGGGTKLTVLA	0.95	0.00056	590000	< 50
COVID19_P02_C07 (scFv, V domains shown) VH: QVQLVQSGAEVKKPGSSVKVSCKASGYTFSSYYIHWVRQAPGQGLEWMGGIIPIFGEAEYAHKFQGRVTITADESTSTAYMELSSLRSEDTAVYYCAMETVMGGMDVWGQGTLVTVSS VL: SSYVLTQPPSVSVAPGKTARITCGGNNIGSKSVHWYQQKPGQAPVLVIYYDSDRPSGIPERFSGSNSGNTATLTISRVEAGDEADYYCQVWDSSSDYVFGGGTKLTVLA	4.34	0.00279	642000	< 50
COVID19_P02_D10 (scFv, V domains shown) VH: QVQLVQSGAEVKKPGSSVKVSCKASGYMFTEFYMHWVRQAPGQGLEWMGGIIPVSGTANYAQKFQGRVTITADESTSTAYMELSSLRSEDTAVYYCARETVMGGMDVWGQGTLVTVSS VL: SSYVLTQPPSVSVAPGKTARITCGGNNIGSKSVHWYQQKPGQAPVLVIYYDSDRPSGIPERFSGSNSGNTATLTISRVEAGDEADYYCQVWDSSSDYVFGGGTKLTVLA	26.4	0.0029	110000	< 50
COVID19_P02_H04 (scFv, V domains shown) VH: QVQLVQSGAEVKKPGSSVKVSCKASGYTFSSFHINWVRQAPGQGLEWMGGITPIFGIANYAQKFQGRVTITADESTSTAYMELSSLRSEDTAVYYCALETVMGGMDVWGQGTLVTVSS VL: SSYVLTQPPSVSVAPGKTARITCGGNNIGSKSVHWYQQKPGQAPVLVIYYDSDRPSGIPERFSGSNSGNTATLTISRVEAGDEADYYCQSWDSSGDYVFGGGTKLTVLA	31.9	0.00781	245000	
COVID19_P13_A08 (scFv, V domains shown) VH: QVQLVQSGAEVKKPGSSVKVSCKASGYTFINYDINWVRQAPGQGLEWMGGITPIFGTANYAQKFQGRVTITADESTSTAYMELSSLRSEDTAVYYCARDTVMGGMDVWGQGTLVTVSS VL: SSYVLTQPPSVSVAPGKTARITCGGNNIGSKSVHWYQQKPGQAPVLVIYYDSDRPSGIPERFSGSNSGNTATLTISRVEAGDEADYYCQVWDSRSDYVFGGGTKLTVLA	10	0.00046	46000	< 50
COVID19_P13_B12 (scFv, V domains shown) VH: QVQLVQSGAEVKKPGSSVKVSCKASGYTFTDFHMHWVRQAPGQGLEWMGGIIPIFGTANYAQKFQGRVTITADESTSTAYMELSSLRSEDTAVYYCALETVMGGMDVWGQGTLVTVSS VL: SSYVLTQPPSVSVAPGKTARITCGGNNIGSKSVHWYQQKPGQAPVLVIYYDSDRPSGIPERFSGSNSGNTATLTISRVEAGDEADYYCQVWDSSSDYVFGGGTKLTVLA	32.7	0.0049	150000	< 50
COVID19_P13_D01 (scFv, V domains shown) VH: QVQLVQSGAEVKKPGSSVKVSCKASGYTFSDFDINWVRQAPGQGLEWMGGIIPIFGTANYAQKFQGRVTITADESTSTAYMELSSLRSEDTAVYYCGMDTVMGGMTSWGQGTLVTVSS VL: SSYVLTQPPSVSVAPGKTARITCGGNNIGSKSVHWYQQKPGQAPVLVIYYDSDRPSGIPERFSGSNSGNTATLTISRVEAGDEADYYCQVWDSSHDYVFGGGTKLTVLA	3.14	0.00035	110000	< 50
COVID19_P13_D11 (scFv, V domains shown) VH: QVQLVQSGAEVKKPGSSVKVSCKASGYSFNAFYIHWVRQAPGQGLEWMGGIIPIFGTANYAQKFQGRVTITADESTSTAYMELSSLRSEDTAVYYCALETVMGGMDVWGQGTLVTVSS VL: SSYVLTQPPSVSVAPGKTARITCGGNNIGSKSVHWYQQKPGQAPVLVIYYDSDRPSGIPERFSGSNSGNTATLTISRVEAGDEADYYCQVWDGSSDYVFGGGTKLTVLA	35	0.011	310000	< 50
COVID19_P13_H02 (scFv, V domains shown) VH: QVQLVQSGAEVKKPGSSVKVSCKASGYTFTGFYMQWVRQAPGQGLEWMGGITPILGTANYAQKFQGRVTITADESTSTAYMELSSLRSEDTAVYYCAREIVMGGMDVWGQGTLVTVSS VL: SSYVLTQPPSVSVAPGKTARITCGGNNIGSKSVHWYQQKPGQAPVLVIYYDSDRPSGIPERFSGSNSGNTATLTISRVEAGDEADYYCQSWDSSSDYVFGGGTKLTVLA	40.6	0.0084	210000	< 50
COVID19_P14_B08 (scFv, V domains shown) VH: QVQLVQSGAEVKKPGSSVKVSCKASGYTFTSYYVHWVRQAPGQGLEWMGGILPILGTPHYAQKFQGRVTITADESTSTAYMELSSLRSEDTAVYYCALETVMGGMTAWGQGTLVTVSS VL: SSYVLTQPPSVSVAPGKTARITCGGNNIGSKSVHWYQQKPGQAPVLVIYYDSDRPSGIPERFSGSNSGNTATLTISRVEAGDEADYYCQVWDSSSDYVFGGGTKLTVLA	30.8	0.0115	374000	< 50
COVID19_P14_C12 (scFv, V domains shown) VH: QVQLVQSGAEVKKPGSSVKVSCKASGYTFTTYDINWVRQAPGQGLEWMGIIDPIGGTTNYAQKFQGRVTITADESTSTAYMELSSLRSEDTAVYYCARDTVGFGMDVWGQGTLVTVSS VL: SSYVLTQPPSVSVAPGKTARITCGGNNIGSKSVHWYQQKPGQAPVLVIYDDSDRPSGIPERFSGSNSGNTATLTISRVEAGDEADYYCQVWDSSSLYVFGGGTKLTVLA	7.8	0.000725	93000	
COVID19_P01_E12 (scFv, V domains shown) VH: QVQLVQSGAEVKKPGSSVKVSCKASGYTFTTYDINWVRQAPGQGLEWMGWINPNSGGTNYAQKFQGRVTITADESTSTAYMELSSLRSEDTAVYYCARDTYWGGMDVWGQGTLVTVSS VL: SSYVLTQPPSVSVAPGKTARITCGGNNIGSKSVHWYQQKPGQAPVLVIYDDSDRPSGIPERFSGSNSGNTATLTISRVEAGDEADYYCQVWDSSSFYVFGGGTKLTVLA	32.5	0.0108	331000	
COVID19_P13_C07 (scFv, V domains shown) VH: QVQLVQSGAEVKKPGSSVKVSCKASGGTFSRYDINWVRQAPGQGLEWMGIINPSGGSTTYAQKFQGRVTITADESTSTAYMELSSLRSEDTAVYYCAHDTVMGGMDVWGQGTLVTVSS VL: SSYVLTQPPSVSVAPGKTARITCGGNNIGSKSVHWYQQKPGQAPVLVIYYDSDRPSGIPERFSGSNSGNTATLTISRVEAGDEADYYCQVWDSSSYYVFGGGTKLTVLA	41.5	0.0095	230000	
COVID19_P14_D11 (scFv, V domains shown) VH: QVQLVQSGAEVKKPGSSVKVSCKASGYTFNRFAMTWVRQAPGQGLEWMGTINPSGGSTIYTQRFQGRVTITADESTSTAYMELSSLRSEDTAVYYCGHDTVMGGMGEWGQGTLVTVSS VL: SSYVLTQPPSVSVAPGKTARITCGGNNIGSKSVHWYQQKPGQAPVLVIYYDSDRPSGIPERFSGSNSGNTATLTISRVEAGDEADYYCQSTDSSSDYVFGGGTKLTVLA	48.2	0.00987	205000	
